B1: antibody 273 (antibody, V domains shown)
VH: QVQLVQSGAEVKKPGASVKVSCKVSGYTLTELSMHWVRQAPGKGLEWMGGFDPEDGETIYAQKFQGRVTMTEDTSTDTAYMELSSLRSEDTAVYYCATAPGYYDSSAPQPINWFDPWGQGTLVTVSS
VL: QSALTQPASVSGSPGQSITISCTGTSSDVGSYNLVSWYQQHPGKAPKLMIYEVSKRPSGVSNRFSGSKSGNTASLTISGLQAEDEADYYCCSYAGSSTLVFGGGTKLTVL
B2: antibody 264 (antibody, V domains shown)
VH: QVHLVESGGGVVQPGRSLRLSCAASGFTLTSYAMHWVRQAPGKGLEWVALISYDGSVKKYAESVKGRITVSGDNSRNTLHLQINTLRADDTAVYYCVRGGVSGPNSFDLWGQGTMVTVSS
VL: DVVMTQSPLSLPVTLGQPASISCRSSQSLEYSDGNTYVNWFQQRPGQSPRRLIYQVSNRASGVPDRFSGSGSGTDFTLQISRVEAEDVGIYYCMQGTHWPVTFGQGTKVEIK
B3: antibody 265 (antibody, V domains shown)
VH: EVQLVQSGAEVKKPGATVKVSCKFSGDTFSHYYIHWVQQAPGKGLEWMGLVDPQDGESEYAQKFQGKVTITADTSIDTSYLEVTSLRFDDTAFYFCATRGMSGAFDRWGQGTLVTVSS
VL: DIVMTQSPDSLAVSLGERATINCKSSQSILSTSNNKNYLAWYQQKPGQPPKLLIYWASTRESGVPDRFSGGGSGTDFTLTISSLQAEDVAVYYCQQYYRTAYTTPIYTFGQGTKLEIK
B4: antibody 281 (antibody, V domains shown)
VH: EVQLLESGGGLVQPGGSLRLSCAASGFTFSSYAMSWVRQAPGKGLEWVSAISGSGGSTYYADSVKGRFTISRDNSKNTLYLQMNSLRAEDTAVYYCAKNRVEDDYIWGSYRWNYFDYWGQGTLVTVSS
VL: QSALTQPASVSGSPGQSITISCTGTSSDVGSYNLVSWYQQHPGKAPKLMIYEVSKRPSGVSNRFSGSKSGNTASLTISGLQAEDEADYYCCSYAGSSTHVVFGGGTKLTVL
B5: antibody 260 (antibody, V domains shown)
VH: EVQLVESGGGLVQPGRSLRLSCAASGFTFDYYAMHWVRQAPGKGLEWVSGISWNSGTIGYADSVKGRFTISRDNAKNSLYLQMNSLRAEDTALYYCAKDSRPSGRYYYGMDVWGQGTTVTVSS
VL: not shown
B6: antibody 276 (antibody, V domains shown)
VH: QVQLQESGPGLVKPSQTLSLTCTVSGDSISSGGYYWSWIRQHPGKGLEWIGYIYYSGSAYYNPSLKSRVTISLDTSKNQFSLKLSSVTAADTAVYYCARDSVAGFSIFDYWGQGTLVTVSS
VL: SSELTQDPAVSVALGQTVRITCQGDSLRSYYASWYQQKPGQAPVRVIYGKNNRPSGIPDRFSGSSSGNTASLTITGAQAEDEADYYCNSWDSSGNHVVFGGGTKLTVL
B7: antibody 263 (antibody, V domains shown)
VH: EVQLVQSGAEVKKPGATVKISCKVSGYTFTDYYMHWVQQAPGKGLEWMGLVDPEDGETIYAEKFQGRVTITADTSTDTAYMELSSLRSDDTAVYYCTTDLAFTIFGGRRGFDPWGQGTLVTVSS
VL: DIQLTQSPSFLSASVGDRVTITCRASQGISSYLAWYQQKPGKAPKLLIYAASTLQSGVPSRFSGSGSGTEFTLTISSLQPEDFATYYCQQLNSYDFGQGTRLEIK
B8: antibody 303 (antibody, V domains shown)
VH: QVQLVESGGGVVQPGRSLRLSCAASGFNLSSYAMHWVRQASGKGLEWVSLISYDGSIKYYADSVKGRFTVSGDNSKNMLFLQMNSLRADDSALYYCVRGGVSGPNAFDIWGQGTTVTVSS
VL: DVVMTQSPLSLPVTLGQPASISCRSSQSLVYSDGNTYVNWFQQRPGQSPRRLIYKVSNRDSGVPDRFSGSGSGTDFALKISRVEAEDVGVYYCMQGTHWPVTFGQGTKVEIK
B9: antibody 290 (antibody, V domains shown)
VH: QVHLVQSGAEVKKPGASVKVSCAASGYTFNNYGVSWVRQAPGQGLEWMGWISASNGNTKYAQNLQGRVTMTTDTSTSTAYMELRSLRSDDTAVYYCARDLVGPTAPNYYYGMDVWGQGTAVTVSS
VL: QSVLTQPPSVSGAPGQRVTISCTGSSSSIGAGYDVHWYQQLPGTAPKLLIYANSNRPSGVPDRLSGSKSGTSASLAITGLQAEDEADYYCQSYDSSLSGYVFGTGTKVTVL
B10: antibody 267 (antibody, V domains shown)
VH: EVHLVQSGAEMKKPGATVKISCKVSGNTFIDHYIQWVQQAPGKGFEWMGLVDPEDGETIYAEKFQGRVTITADTSRDTAYMELSSLKSEDTAVYYCGTHGDYLDYWGQGTLVTVSS
VL: FYELTQPSSVSVSPGQTALITCSGDVVAKKYARWFQQKAGQAPVLVIYKDTERPSGIPERISGSSSGTTVTLTISGAQVEDEADYYCYSATDNNLVFGGGTKVTVL
B11: antibody 273 (antibody, V domains shown)
VH: B1 VH
VL: B1 VL
B12: antibody 301 (antibody, V domains shown)
VH: QVQLVQSGAEVKKPGASVKVSCKVSGYTLTELSMHWVRQAPGKGLEWMGGFDPEDGETIYAQKFQGRVTMTEDTSTDTAYMELSSLRSEDTAVYYCATAFCGGDCYPPDALDIWGQGTMVTVSS
VL: DIQMTQSPSSVSASVGDRVTITCRASQGISSWLAWYQQKPGKAPKLLIYAASSLQSGVPSRFSGSGSGTDFTLTISSLQPEDFATYYCQQANSFPLTFGGGTKVEIK
B13: antibody 259 (antibody, V domains shown)
VH: EVQLVQSGAEVKKPGATVKISCKVSGYTFTDYYMHWVQQAPGKGLEWMGLVDPEDGETIYAEKFQGRVTITADTSTDTAYMELSSLRSEDTAVYYCATDLLSWKLYCSGGSCPQMDVWGQGTTVTVSS
VL: DIQMTQSPSSLSASVGDRVTITCRASQGIRNDLGWYQQKPGKAPKRLIYAASSLQSGVPSRFSGSGSGTEFTLTISSLQPEDFATYYCLQHNSYPQTFGQGTKLEIK
B14: antibody 265 (antibody, V domains shown)
VH: B3 VH
VL: B3 VL
B15: antibody 260 (antibody, V domains shown)
VH: B5 VH
VL: not shown
B16: antibody 288 (antibody, V domains shown)
VH: EVQLVESGGGLVQPGGSLRLSCAASGFTFSSYDMHWVRQATGKGLEWVSAIGTAGDTYYPGSVKGRFTISRENAKNSLYLQMNSLRAGDTAVYYCARGANRDYDILTGYYSYYYYGMDVWGQGTTVTVSS
VL: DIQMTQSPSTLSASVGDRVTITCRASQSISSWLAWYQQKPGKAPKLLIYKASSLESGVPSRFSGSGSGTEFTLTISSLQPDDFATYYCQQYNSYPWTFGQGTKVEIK
B17: antibody 306 (antibody, V domains shown)
VH: QVQLVESGGGVVQPGRSLRLSCAASGFTFSSYGMHWVRQAPGKGLEWVAVIWYDGSNKYYADSVKGRFTISRDNSKNTLYLQMNSLRAEDTAVYYCAKDGGYCGGDCYSDGVDYWGQGTLVTVSS
VL: not shown
B18: antibody 299 (antibody, V domains shown)
VH: not shown
VL: EIVLTQSPATLSLSPGERATLSCRASQSVSSYLAWYQQKPGQAPRLLIYDASNRATGIPARFSGSGSGTDFTLTISSLEPEDFAVYYCQQRSNWPWTFGQGTKVEIK
B19: antibody 263 (antibody, V domains shown)
VH: B7 VH
VL: B7 VL
B20: antibody 270 (antibody, V domains shown)
VH: QVQLVQSGAEVKRPGTSVKVSCKTSGYTFTDHFIHWVRQAPGRRLEWMGWINPNSGGTNYAQNFQGRVTMTRDTSITTAYMDLTRLTSDDTAIYYCAREAAYGSGNLNWFDPWGQGTRVTVSS
VL: NFMLTQPHSVSESPGKTVTISCTGSSGSIAANYVHWYQQRPGSAPRTVIYEDNQRPSGVPDRFSGSIDSSSNSASLTISGLKTEDEADYYCQSYDGDSWVFGGGTKLTVL
B21: antibody 294 (antibody, V domains shown)
VH: EVQLVESGGGLVQPGGSLRLSCAASGFTVSSNYMNWVRQAPGKGLEWVSVIYSGGSTYYADSVKGRFTISRDNSKNTLYLQMNSLRAEDTAVYYCARDLGPSGMDVWGQGTTVTVSS
VL: DIQMTQSPSSVSASVGDRVTITCRASQGISSWLAWYQQKPGKAPKLLIYAASSLQSGVPSRFSGSGSGTDFTLTISSLQPEDFATYYCQQANSFPLFGGGTKVEIK
B22: antibody 315 (antibody, V domains shown)
VH: QVQLVQSGSELKKPGASVKLSCQASGYSFTNHAMNWVRQAPGQGLEWMGWINTNTGNPTYAQGFTGRFVFSLDTSVSTTYLHISSLKAEDTAVYYCARASARPGVATNLDFWGQGTLVVVSS
VL: DIQMTQSPSSLSASVGDRVTITCRASQNIDNYLNWYQQKPGKAPKLLIYAASRLHSGVPSRFSGSGSGTDFTLIISSLQPEDLATYYCQQSYSNPLTFGPGTKVDIR
B23: antibody 295 (antibody, V domains shown)
VH: QVQLQESGPGLVKPSQTLSLTCTVSGGSISSSDYYWSWIRQPPGKGLEWIGYIYYSGSTYYNPSLKSRVTISVDTSKNQFSLKLSSVTAADTAVYYCARVVGYCSSTSCYVDYWGQGTLVTVSS
VL: EIVLTQSPATLSLSPGERVTLSCRASQSVSSYLAWYQQKPGQAPRLLIYDASNRATGIPARFSGSGSGTDFTLTISSLEPEDFAVYYCQQRSNWPPGLTFGGGTKVEIK

Molecular target: SARS-CoV-2 full length spike protein (wild type) (SARS-CoV-2, UniProt P0DTC2 14-1208)

Binder	binding signal, bead assay (fold over isotype)
B1	924
B2	598
B3	1280
B4	570
B5	724
B6	748
B7	722
B8	341

Molecular target: full-length trimeric SARS-CoV spike protein (SARS-CoV, UniProt P59594 14-1190)

Binder	median fluorescence intensity, fold over isotype control
B9	1.25 fold over isotype
B10	16.9 fold over isotype
B11	1.23 fold over isotype
B12	1.45 fold over isotype
B13	1.03 fold over isotype
B14	1.09 fold over isotype
B15	108 fold over isotype
B16	1 fold over isotype
B17	1.39 fold over isotype
B18	1.13 fold over isotype
B19	1.13 fold over isotype
B20	1.34 fold over isotype
B21	1.07 fold over isotype
B22	1.07 fold over isotype
B23	1.24 fold over isotype
